Measured values from FireProtDB (doi:10.1016/0022-2836(81)90253-9).

Settings: Sus scrofa, Thermal, DSC, reversible: yes, whole UniProt chain shown
[1] = pH 6.5, sodium phosphate 5 mM, NaCl 100 mM
[2] = pH 7.1, sodium phosphate 5 mM, NaCl 100 mM

B1: Gastricsin wild type, P30879 (protein)
chain: SVIKVPLKKLKSIRQAMKEKGLLEEFLKTHKYDPAQRYRIGDISVALEPMAYLEAAYFGEISIGTPPQNFLVL
Tm (pH 6, sodium cacodylate 5 mM): 66 °C | unfolding enthalpy (calorimetric) (pH 6, sodium cacodylate 5 mM): 271 kcal/mol | unfolding enthalpy (van 't Hoff) (pH 6, sodium cacodylate 5 mM): 174 kcal/mol | Tm [1]: 64.5 °C | unfolding enthalpy (calorimetric) [1]: 256 kcal/mol | unfolding enthalpy (van 't Hoff) [1]: 131 kcal/mol | Tm (pH 6.5, sodium phosphate 5 mM): 61 °C | unfolding enthalpy (calorimetric) (pH 6.5, sodium phosphate 5 mM): 240 kcal/mol | unfolding enthalpy (van 't Hoff) (pH 6.5, sodium phosphate 5 mM): 125 kcal/mol | Tm [2]: 56.3 °C | unfolding enthalpy (calorimetric) [2]: 202 kcal/mol | unfolding enthalpy (van 't Hoff) [2]: 143 kcal/mol
